Measured values published in PMC4914113, “Another look at the mechanism involving trimeric dUTPases in Staphylococcus aureus pathogenicity island induction involves novel players in the party” (Nucleic Acids Research, 2016).

Legend:
[1] = biological target: Dutϕ11^IV-80α (Staphylococcus aureus phage ϕ11); test: BLI; BLItz; His-tagged Dut immobilised at 1 μM on Ni-NTA biosensors, Stl in solution (at least five dilutions, 4 to 0.062 μM); buffer STL (400 mM NaCl, 75 mM HEPES pH 7.5, 5 mM MgCl2, 2 mM DTT); no nucleotide; 1:1 model
[2] = biological target: Dutϕ11^ΔV-ΔVI (Staphylococcus aureus phage ϕ11); test: as above
[3] = biological target: Dutϕ11^ΔVI-IV-80α (Staphylococcus aureus phage ϕ11); test: as above
[4] = biological target: Dut80α^WT, wild-type dUTPase of phage 80α (Staphylococcus aureus phage 80α); test: as above
[5] = biological target: Dut80α^D81A (Staphylococcus aureus phage 80α); test: as above
[6] = biological target: Dut80α^Y84I (Staphylococcus aureus phage 80α); test: as above
[7] = biological target: Dut80α^ΔV, Dut80α motif V deletion mutant (Staphylococcus aureus phage 80α); test: as above
[8] = biological target: Dut80α^IV-11 (Staphylococcus aureus phage 80α); test: as above
[9] = biological target: Dutϕ11^ΔVI, Dutϕ11 lacking motif VI (Staphylococcus aureus phage ϕ11); test: as above
[10] = biological target: Dut80α^ΔVI, Dut80α lacking motif VI (Staphylococcus aureus phage 80α); test: as above
[11] = biological target: Dutϕ11^ΔV, Dutϕ11 motif V deletion mutant (Staphylococcus aureus phage ϕ11); test: as above
[12] = biological target: Dut80α^ΔVI-IV-11 (Staphylococcus aureus phage 80α); test: as above
[13] = biological target: Dutϕ11^WT, wild-type dUTPase of phage ϕ11 (Staphylococcus aureus phage ϕ11); test: BLI; as a1, buffer STL supplemented with 5 mM dUMP (baselines and dissociation without nucleotide); 1:1 model
[14] = biological target: Dut80α^WT, wild-type dUTPase of phage 80α (Staphylococcus aureus phage 80α); test: as above
[15] = biological target: Dut80α^ΔV, Dut80α motif V deletion mutant (Staphylococcus aureus phage 80α); test: as above

Stl repressor from SaPIbov1 (natural protein)
Kd [1]: 3.33 nM
koff [1]: 0.00025 s⁻¹
kon [1]: 75000 M⁻¹ s⁻¹
Kd [2]: 111 nM
koff [2]: 0.0019 s⁻¹
kon [2]: 17000 M⁻¹ s⁻¹
Kd [3]: > 1000 nM
Kd [4]: 40 nM
koff [4]: 0.001 s⁻¹
kon [4]: 25000 M⁻¹ s⁻¹
Kd [5]: 161 nM
koff [5]: 0.0042 s⁻¹
kon [5]: 26000 M⁻¹ s⁻¹
Kd [6]: > 1000 nM
Kd [7]: 530 nM
koff [7]: 0.009 s⁻¹
kon [7]: 17000 M⁻¹ s⁻¹
Kd [8]: 3.13 nM
koff [8]: 0.00021 s⁻¹
kon [8]: 67000 M⁻¹ s⁻¹
Kd [9]: 11.4 nM
koff [9]: 0.00024 s⁻¹
kon [9]: 21000 M⁻¹ s⁻¹
Kd [10]: > 1000 nM
Kd [11]: 1.42 nM
koff [11]: 4e-05 s⁻¹
kon [11]: 28000 M⁻¹ s⁻¹
Kd [12]: 4.56 nM
koff [12]: 0.00026 s⁻¹
kon [12]: 57000 M⁻¹ s⁻¹
Kd [13]: 1.93 nM
koff [13]: 5.8e-05 s⁻¹
kon [13]: 30000 M⁻¹ s⁻¹
Kd [14]: 23.5 nM
koff [14]: 0.0008 s⁻¹
kon [14]: 34000 M⁻¹ s⁻¹
Kd [15]: 602 nM
koff [15]: 0.005 s⁻¹
kon [15]: 8300 M⁻¹ s⁻¹
